The values below come from patent US20210393685A1 (TRUSTEES OF COLUMBIA UNIVERSITY IN THE CITY OF NEW YORK, published 2021).

This assay addresses T1, CD33 on cord blood CD34+ cells (human, UniProt P20138 18-364).
T1 construct: whole, on cells; also called CD33 antigen
The assay is described as follows: flow cytometry on CD33-expressing cord blood CD34+ cells, detected with FITC anti-Myc antibody. The procedure: The binding of the anti-CD33-ULBP1 chimera with CD33 antigen-expressing cord blood CD34+ cells or NKG2D-expressing primary NK cells was tested using flow cytometry. Briefly, primary NK cells were purified from peripheral blood of donors. CD34+ cells were purified from cord blood of donors. Purified cells were incubated with the elute from the mock, chimera 1 or chimera 2 proteins purified from the cell supernatant. The cells were also incubated with FITC-conjugated anti-Myc antibody and analyzed using a flow cytometer.

T1 sequence (P20138 18-364): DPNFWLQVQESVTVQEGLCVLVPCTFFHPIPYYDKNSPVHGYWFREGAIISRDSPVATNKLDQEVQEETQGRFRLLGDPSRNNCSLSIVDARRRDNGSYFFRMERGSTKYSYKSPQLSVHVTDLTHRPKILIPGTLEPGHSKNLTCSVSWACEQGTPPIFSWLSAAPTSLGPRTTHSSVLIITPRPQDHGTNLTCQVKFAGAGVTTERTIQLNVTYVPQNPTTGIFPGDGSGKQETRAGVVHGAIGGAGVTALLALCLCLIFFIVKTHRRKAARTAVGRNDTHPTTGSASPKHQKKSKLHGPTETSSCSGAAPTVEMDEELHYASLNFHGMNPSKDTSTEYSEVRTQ

B1: anti-CD33-ULBP1 chimera 2 (CD33-ULBP1-2, with proline) (other)
chain: EIVLTQSPGSLAVSPGERVTMSCKSSQSVFFSSSQKNYLAWYQQIPGQSPRLLIYWASTRESGVPDRFTGSGSGTDFTLTISSVQPEDLAIYYCHQYLSSRTFGQGTKLEIKRGSTSGSGKPGSGEGSTKGQVQLQQPGAEVVKPGASVKMSCKASGYTFTSYYIHWIKQTPGQGLEWVGVIYPGNDDISYNQKFQGKATLTADKSSTTAYMQLSSLTSEDSAVYYCAREVRLRYFDVWGQGTTVTVSSSSSAGGGGSGGGGSGGGGSPWVDTHCLCYDFIITPKSRPEPQWCEVQGLVDERPFLHYDCVNHKAKAFASLGKKVNVTKTWEEQTETLRDVVDFLKGQLLDIQVENLIPIEPLTLQARMSCEHEAHGHGRGSWQFLFNGQKFLLFDSNNRKWTALHPGAKKMTEKWEKNRDVTMFFQKISLGDCKMWLEEFLMYWEQMLDPTKPPSLAPGEQKLISEEDLHHHHHH
notes: also called αCD33-ULBP1 chimera 2
As to B1, the binding result is recorded as “binds”.

B2: anti-CD33-ULBP1 chimera 1 (CD33-ULBP1-1) (other)
chain: EIVLTQSPGSLAVSPGERVTMSCKSSQSVFFSSSQKNYLAWYQQIPGQSPRLLIYWASTRESGVPDRFTGSGSGTDFTLTISSVQPEDLAIYYCHQYLSSRTFGQGTKLEIKRGSTSGSGKPGSGEGSTKGQVQLQQPGAEVVKPGASVKMSCKASGYTFTSYYIHWIKQTPGQGLEWVGVIYPGNDDISYNQKFQGKATLTADKSSTTAYMQLSSLTSEDSAVYYCAREVRLRYFDVWGQGTTVTVSSSSSAGGGGSGGGGSGGGGSWVDTHCLCYDFIITPKSRPEPQWCEVQGLVDERPFLHYDCVNHKAKAFASLGKKVNVTKTWEEQTETLRDVVDFLKGQLLDIQVENLIPIEPLTLQARMSCEHEAHGHGRGSWQFLFNGQKFLLFDSNNRKWTALHPGAKKMTEKWEKNRDVTMFFQKISLGDCKMWLEEFLMYWEQMLDPTKPPSLAPGEQKLISEEDLHHHHHH
notes: also called αCD33-ULBP1 chimera 1
As for B2, the binding result was “binds”.
